Reference: publication PMC3601957, “Structural Basis of Rap Phosphatase Inhibition by Phr Peptides” (PLoS Biology, 2013)

Experiments:
RapF [1] = molecular target: T1, RapF (Bacillus subtilis, UniProt P71002); assay: Thermal-shift peptide binding assay, wild-type RapF; set-up: species or system B. subtilis; details: peptide 1 mM, PhrA and PhrE: unpublished data
T1 construct: 6xHis (N, cleaved yes); made in house; host or cells: Escherichia coli BL21 RIL
T1 sequence (P71002 whole entry, looked up): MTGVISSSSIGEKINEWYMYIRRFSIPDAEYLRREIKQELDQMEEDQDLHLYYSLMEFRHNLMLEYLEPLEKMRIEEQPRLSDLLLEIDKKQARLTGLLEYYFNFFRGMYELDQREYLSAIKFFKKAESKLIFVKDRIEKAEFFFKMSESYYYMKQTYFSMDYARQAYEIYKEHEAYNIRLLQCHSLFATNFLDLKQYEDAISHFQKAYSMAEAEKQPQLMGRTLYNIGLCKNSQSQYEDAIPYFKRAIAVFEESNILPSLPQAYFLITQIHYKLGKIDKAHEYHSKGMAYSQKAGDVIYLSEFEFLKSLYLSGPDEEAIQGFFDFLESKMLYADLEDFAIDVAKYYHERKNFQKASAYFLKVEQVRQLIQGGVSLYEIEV
Protocol: The thermal-shift assay was conducted in a 7500 Fast Real-time PCR System (Applied Biosystems). Final melt conditions were 20 mM Tris-HCl (pH 8), 100 mM NaCl, 20 µM RapF, and 5× SYPRO Orange (Sigma-Aldrich). The final concentration of the inhibitory peptides was 1 mM when they were present. The assays were carried out at a final volume of 20 µl in 96-well PCR plates. Samples were heated at 1°C/min. Fluorescent intensity was plotted versus temperature and integrated with the GraphPad Prism 4 software using a Boltzmann model to calculate melting temperatures.

RapF [2] = molecular target: T1, RapF; assay: Limited proteolysis with trypsin, wild-type RapF; assay type: biochemical, B. subtilis; details: wild-type RapF 1.5 mg/ml, peptide 1 mM, trypsin 1:10,000, 37°C, 0-90 min, SDS-PAGE / native PAGE (60 min); PhrA and PhrE: unpublished data
Protocol: Wild-type RapF and mutant variants (RapF^E303K, RapF^E303A, RapF^N227A, and RapF^D194A) at a concentration of 1.5 mg/ml were pre-incubated in lysis buffer (10 mM Tris-HCl [pH 8], 0.1 mM EDTA, 1 mM β-mercaptoethanol, 100 mM NaCl, 5% glycerol, and 5 mM CaCl2) in the presence (1 mM) or absence of inhibitory peptides at room temperature for 30 min. The protein was subjected to proteolysis by trypsin (1∶10,000) at 37°C and aliquots of the reaction mixture were taken after 0, 10, 30, and 90 min of incubation, mixed with SDS–PAGE loading buffer and immediately boiled to stop the enzyme reaction. Samples were then separated on 12% acrylamide SDS–PAGE and stained with Coomassie brilliant blue. For the peptide titration experiments, RapF was incubated in lysis buffer with increasing concentrations of PhrF at room temperature for 30 min and subjected to limited proteolysis with trypsin(1∶10,000) at 37°C for 60 min. The reactions were stopped SDS–PAGE loading buffer and analyzed by SDS–PAGE.

RapA = details: cited from earlier work
Excerpt: The RNPP family of Gram-positive quorum sensors presents a characteristic C-terminal TPR domain with seven TPR repeats for the structurally known Raps (RapF and RapH) (Figures 1E and S3),[31]. The RapF TPR domain folded in a large superhelix to generate a pseudo circular structure that was closed in a wide channel (8,588 Å^3, calculated by the CASTp software) by the interaction of the terminal part of TPR7 (and the following C-terminal tail) with the initial part of TPR1 (Figure 1). As a channel, the generated ring-like structure was open on both faces (Figures S4, upper panel) ... || Peptide anchoring should be independent of its sequence. Thus, it is primarily mediated by interactions with the peptide main chain. These interactions are mainly polar in nature and involve the side chain hydrogen bonds and salt bridges of Tyr66, Tyr152, Gln183, Arg223, Asn227, Gln263, and Asp338 with the PhrF backbone (Figure 2). Additionally, the conserved Arg at position 2 of the Phr peptides is anchored by a salt bridge with the side chain of a conserved Asp residue (Asp194 in RapF) from TPR3 (Figure 2). […] The conserved asparagine in the RNPP family (Asn227 in RapF) interacts with the PhrF backbone and supports the key role of this residue in peptide accommodation.

RapF^D194A = molecular target: T2, RapF^D194A (B. subtilis, UniProt P71002 1-381, D194A)
T2 sequence: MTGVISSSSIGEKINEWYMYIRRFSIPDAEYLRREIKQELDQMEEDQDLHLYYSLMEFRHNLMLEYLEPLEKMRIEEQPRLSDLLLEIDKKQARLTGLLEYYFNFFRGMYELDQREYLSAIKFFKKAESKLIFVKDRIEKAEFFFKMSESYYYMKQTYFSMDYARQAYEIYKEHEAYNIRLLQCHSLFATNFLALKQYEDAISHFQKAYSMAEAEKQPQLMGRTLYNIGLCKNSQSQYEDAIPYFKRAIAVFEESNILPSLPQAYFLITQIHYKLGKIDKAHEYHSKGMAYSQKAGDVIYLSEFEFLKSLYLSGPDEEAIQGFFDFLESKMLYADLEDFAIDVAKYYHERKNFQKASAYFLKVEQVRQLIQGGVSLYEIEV

RapF^N227A = molecular target: T3, RapF^N227A (B. subtilis, UniProt P71002 1-381, N227A)
T3 sequence: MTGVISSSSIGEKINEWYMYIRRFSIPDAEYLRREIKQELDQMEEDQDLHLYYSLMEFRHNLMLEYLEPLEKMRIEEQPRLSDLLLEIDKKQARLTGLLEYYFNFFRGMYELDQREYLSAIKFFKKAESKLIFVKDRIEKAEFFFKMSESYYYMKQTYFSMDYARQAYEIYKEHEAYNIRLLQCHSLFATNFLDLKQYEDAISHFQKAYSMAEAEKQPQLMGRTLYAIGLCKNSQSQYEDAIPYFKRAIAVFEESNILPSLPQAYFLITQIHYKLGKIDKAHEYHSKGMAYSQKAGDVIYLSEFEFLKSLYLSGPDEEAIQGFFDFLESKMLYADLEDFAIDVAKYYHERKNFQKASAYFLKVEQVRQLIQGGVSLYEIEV

RapF [3] = molecular target: T4, RapF (B. subtilis, UniProt P71002 1-381); assay: thermal-shift assay (SYPRO Orange); 20 µM RapF, peptides 1 mM; 20 mM Tris-HCl pH 8, 100 mM NaCl; heated at 1°C/min; details: both partners purified
T4 construct: RapF of Bacillus subtilis, amplified from genomic DNA and cloned in pPROEX-HTa; The text speaks of residues up to Val381, which fits the whole protein; also called wild-type RapF; native RapF; source: E. coli BL21 RIL, purified (HisTrap, TEV digestion, Superdex 200); not shown: His6, N-terminal, cleaved
T4 sequence: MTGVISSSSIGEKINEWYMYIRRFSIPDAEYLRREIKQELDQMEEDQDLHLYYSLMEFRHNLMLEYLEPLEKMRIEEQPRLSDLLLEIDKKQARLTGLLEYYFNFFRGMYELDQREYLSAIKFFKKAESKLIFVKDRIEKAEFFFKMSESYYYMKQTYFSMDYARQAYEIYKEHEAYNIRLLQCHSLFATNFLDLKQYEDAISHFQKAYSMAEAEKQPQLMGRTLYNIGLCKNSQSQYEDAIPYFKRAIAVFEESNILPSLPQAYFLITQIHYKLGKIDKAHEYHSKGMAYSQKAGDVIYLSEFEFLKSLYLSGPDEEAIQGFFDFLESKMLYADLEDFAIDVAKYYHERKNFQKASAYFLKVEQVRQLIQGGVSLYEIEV

RapF [4] = molecular target: T4, RapF; assay: native gel or EMSA; titration on 8% native gel; 20 µg protein, peptide 50 nM to 1.2 mM in 20 µl buffer A, 15 min at room temperature; midpoint of the transition taken as the apparent Kd; details: both partners purified
RapF^E303K = molecular target: T5, RapF^E303K (B. subtilis, UniProt P71002 1-381, E303K); assay: as above; details: both partners purified
T5 construct: RapF of Bacillus subtilis with Glu303 changed to Lys, made from pPROEX-RapF by site-directed mutagenesis; Same construct as m1 with the point mutation; also called RapF Glu303Lys; source: E. coli BL21 RIL, purified as native RapF; not shown: His6, N-terminal, cleaved
T5 sequence: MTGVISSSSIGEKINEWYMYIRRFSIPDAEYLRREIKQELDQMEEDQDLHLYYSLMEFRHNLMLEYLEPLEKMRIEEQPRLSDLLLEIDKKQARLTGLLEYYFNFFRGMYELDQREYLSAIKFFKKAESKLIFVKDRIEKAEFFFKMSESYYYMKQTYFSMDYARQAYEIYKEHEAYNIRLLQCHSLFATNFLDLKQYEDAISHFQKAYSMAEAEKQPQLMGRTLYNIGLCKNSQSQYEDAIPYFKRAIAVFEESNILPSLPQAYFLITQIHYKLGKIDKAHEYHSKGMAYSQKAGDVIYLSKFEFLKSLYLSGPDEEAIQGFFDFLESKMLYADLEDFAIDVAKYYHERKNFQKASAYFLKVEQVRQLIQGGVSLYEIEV

RapF^E303A = molecular target: T6, RapF^E303A (B. subtilis, UniProt P71002 1-381, E303A); assay: as above; details: both partners purified
T6 construct: RapF of Bacillus subtilis with Glu303 changed to Ala, made from pPROEX-RapF by site-directed mutagenesis; Same construct as m1 with the point mutation; also called RapF Glu303Ala; source: E. coli BL21 RIL, purified as native RapF; not shown: His6, N-terminal, cleaved
T6 sequence: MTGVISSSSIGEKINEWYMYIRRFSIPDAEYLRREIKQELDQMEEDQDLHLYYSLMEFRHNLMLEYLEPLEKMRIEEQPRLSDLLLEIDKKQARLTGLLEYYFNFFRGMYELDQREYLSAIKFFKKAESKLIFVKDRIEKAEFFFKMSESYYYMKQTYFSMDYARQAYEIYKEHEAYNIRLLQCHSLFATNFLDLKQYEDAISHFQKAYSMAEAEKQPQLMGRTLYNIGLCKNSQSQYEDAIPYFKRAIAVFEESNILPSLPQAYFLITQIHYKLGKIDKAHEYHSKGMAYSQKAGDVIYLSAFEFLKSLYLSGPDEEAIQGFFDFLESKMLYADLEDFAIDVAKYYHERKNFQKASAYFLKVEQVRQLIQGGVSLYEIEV

PhrE: PhrE, non RapF partner peptide (SRNVT)
thermal stabilization by peptide (RapF [1]): presented identical melting transitions to those observed in the absence of peptide | protection of RapF against trypsin digestion (RapF [2]): did not protect against trypsin attack

PhrA: PhrA, inhibitor peptide of RapA; non RapF partner peptide (ARNQT)
thermal stabilization by peptide (RapF [1]): presented identical melting transitions to those observed in the absence of peptide | protection of RapF against trypsin digestion (RapF [2]): did not protect against trypsin attack | sensitivity of RapA Asp192 and His260 mutants to peptide (RapA; RapA Asp192 and His260 mutants, Spo0F∼P dephosphorylation unaffected): insensitive to the inhibitory activity of PhrA | binding to RapA Tyr224 or His260 to alanine mutants (RapA; RapA Tyr224Ala or His260Ala, no effect on enzymatic activity): completely abolishes the capacity to bind PhrA | binding to RapA mutant, Asn to Ala (position of RapF Asn227) (RapA; RapA mutant, intact capacity to bind Spo0F): impaired capacity to bind the PhrA peptide | requirement for inhibition of RapA (RapA): requirement of the free terminal carboxylate group | sensitivity of RapA mutants at positions of RapF Tyr226 and Leu230 (RapA; functional RapA variants): completely insensitive to the PhrA peptide

B1: PhrF (peptide)
peptide: QRGMI
notes: mature active form of the PhrF precursor; The purchase from Genescript is stated for the crystallisation; no other source is named; also called PhrF peptide; source: bought: Genescript
Kd (RapF^D194A): > 1200 µM | Kd (RapF^N227A): > 1200 µM | increment in the melting temperature of RapF with PhrF (RapF [3]): ~20 °C | Kd (RapF [4]): 3.1 µM | Kd (RapF^E303K): 13.2 µM | Kd (RapF^E303A): 29 µM

B2: PhrC (peptide)
peptide: ERGMT
notes: mature active form of the PhrC precursor; also called PhrC peptide; RapC (PhrC) peptide
Kd (RapF^E303K): 19.6 µM
